Experimental data taken from article PMC6211538.

Columns and labels:
[1] = target: AMPA receptor GluA2 from rat with deletion of the disordered intracellular C-terminal domain (GluA2cryst) (rat) (UniProt P19491); test: small-angle neutron scattering (SANS), molecular weight by Fischer analysis; with 10 mM AMPA, pH 5.5; 0.17 mg/ml (0.46 uM) GluA2 in D2O-based buffer with 0.5 mM matched-out deuterated DDM; 10°C; oligomeric state from MW against the construct's 368 kDa
[2] = target: AMPA receptor GluA2 from rat with deletion of the disordered intracellular C-terminal domain (GluA2cryst) (rat) (UniProt P19491); test: small-angle neutron scattering (SANS), molecular weight by Fischer analysis; with 1 mM GYKI-53655; 0.31 mg/ml (0.84 uM) GluA2 in D2O-based buffer with 0.5 mM matched-out deuterated DDM; 10°C; oligomeric state from MW against the construct's 368 kDa
[3] = target: AMPA receptor GluA2 from rat with deletion of the disordered intracellular C-terminal domain (GluA2cryst) (rat) (UniProt P19491); test: small-angle neutron scattering (SANS), molecular weight by Fischer analysis; with 1 mM AMPA, pH 7.5; 0.31 mg/ml (0.84 uM) GluA2 in D2O-based buffer with 0.5 mM matched-out deuterated DDM; 10°C; oligomeric state from MW against the construct's 368 kDa
[4] = target: AMPA receptor GluA2 from rat with deletion of the disordered intracellular C-terminal domain (GluA2cryst) (rat) (UniProt P19491); test: small-angle neutron scattering (SANS), molecular weight by Fischer analysis; resting state (apo); 0.20 mg/ml (0.54 uM) GluA2 in D2O-based buffer, 20 mM Tris-DCl pH 7.5, 100 mM NaCl, 0.5 mM matched-out deuterated DDM; 10°C; oligomeric state from MW against the construct's 368 kDa

Measured: stoichiometry N

AMPA receptor GluA2 from rat with deletion of the disordered intracellular C-terminal domain (GluA2cryst) (from UniProt P19491 22-883)
4: all assays above
